Test results from patent US20230414780A1 (VECT HORUS, published 2023).

What was measured:
Assay in all cases: apparent Kd, flow cytometry, CHO cells
[1] = biological target: T1, mouse transferrin receptor (mTfR) fused to EGFP, on CHO cells (mouse, UniProt Q62351 1-763)
T1 construct: whole, on cells; also called mouse TfR; CHO-mTfR-EGFP; not shown: EGFP
Experimental: (§1) The binding properties of VHHs with affinity for the TfR from different species (i.e., human (h), mouse (m) and rhesus monkey (rh)) were tested using flow cytometry, and apparent affinities (Kd app) were determined. All experiments were performed in 96 well plates using 2×10⁵ cells/well, at 4° C. with shaking. CHO cell lines expressing the hTfR, mTfR or rhTfR fused to EGFP were saturated with PBS/BSA 2% solution during 30 min to avoid nonspecific binding, followed by incubation with purified VHHs at increasing concentrations for 1 hr. After one wash in PBS/BSA 2%, cells were incubated for 1 hr with an anti-6His tag antibody (mouse), washed twice with PBS/BSA 2%, and incubated for 1 hr with an Alexa647-conjugated anti-mouse secondary antibody. After two last washes in PBS/BSA 2%, cells were fixed by incubation for 15 min with PBS/PFA 2%, washed once with PBS and finally resuspended in PBS. Fluorescence levels were assessed using an Attune NxT flow cytometer (Thermo Fisher Scientific). Experimental data were fitted with GraphPad Prism® software using a nonlinear fit to determine the apparent Kd constants. […] Table 5 hereafter summarizes apparent Kd obtained for the tested VHHs.

[2] = biological target: T2, human transferrin receptor (hTfR) fused to EGFP, on CHO cells (human, UniProt P02786 1-760)
T2 construct: whole, on cells; also called human TfR; CHO-hTfR-EGFP; not shown: EGFP from pEGFP-C1 vector, fused to the N-terminal (intracellular) end of hTfR
T2 sequence (P02786 whole entry, the tested form may be a part): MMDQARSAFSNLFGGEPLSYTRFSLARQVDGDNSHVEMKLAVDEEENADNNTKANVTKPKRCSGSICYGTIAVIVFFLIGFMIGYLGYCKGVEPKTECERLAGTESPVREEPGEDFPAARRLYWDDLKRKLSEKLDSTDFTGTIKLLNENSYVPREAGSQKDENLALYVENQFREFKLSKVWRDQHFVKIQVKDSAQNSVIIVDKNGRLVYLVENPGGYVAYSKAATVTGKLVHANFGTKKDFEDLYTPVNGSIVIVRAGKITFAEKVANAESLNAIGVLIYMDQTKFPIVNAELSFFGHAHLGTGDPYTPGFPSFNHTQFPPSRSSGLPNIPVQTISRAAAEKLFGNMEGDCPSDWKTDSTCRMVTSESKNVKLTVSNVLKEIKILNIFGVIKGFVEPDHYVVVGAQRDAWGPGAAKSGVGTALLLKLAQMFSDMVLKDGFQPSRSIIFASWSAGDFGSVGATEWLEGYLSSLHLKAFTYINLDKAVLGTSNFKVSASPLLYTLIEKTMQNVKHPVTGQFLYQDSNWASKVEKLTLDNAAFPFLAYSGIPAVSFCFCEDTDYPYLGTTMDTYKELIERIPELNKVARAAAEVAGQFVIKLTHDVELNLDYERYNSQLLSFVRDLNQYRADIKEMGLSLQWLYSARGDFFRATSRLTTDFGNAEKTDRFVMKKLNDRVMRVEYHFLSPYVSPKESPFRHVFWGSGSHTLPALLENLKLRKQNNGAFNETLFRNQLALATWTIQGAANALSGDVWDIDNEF
Experimental: as §1

[3] = biological target: T3, rhesus monkey transferrin receptor (rhTfR) fused to EGFP, on CHO cells (rhesus monkey)
T3 construct: whole, on cells; also called rhesus monkey TfR
Experimental: as §1

T1 sequence (Q62351 whole entry, the tested form may be a part): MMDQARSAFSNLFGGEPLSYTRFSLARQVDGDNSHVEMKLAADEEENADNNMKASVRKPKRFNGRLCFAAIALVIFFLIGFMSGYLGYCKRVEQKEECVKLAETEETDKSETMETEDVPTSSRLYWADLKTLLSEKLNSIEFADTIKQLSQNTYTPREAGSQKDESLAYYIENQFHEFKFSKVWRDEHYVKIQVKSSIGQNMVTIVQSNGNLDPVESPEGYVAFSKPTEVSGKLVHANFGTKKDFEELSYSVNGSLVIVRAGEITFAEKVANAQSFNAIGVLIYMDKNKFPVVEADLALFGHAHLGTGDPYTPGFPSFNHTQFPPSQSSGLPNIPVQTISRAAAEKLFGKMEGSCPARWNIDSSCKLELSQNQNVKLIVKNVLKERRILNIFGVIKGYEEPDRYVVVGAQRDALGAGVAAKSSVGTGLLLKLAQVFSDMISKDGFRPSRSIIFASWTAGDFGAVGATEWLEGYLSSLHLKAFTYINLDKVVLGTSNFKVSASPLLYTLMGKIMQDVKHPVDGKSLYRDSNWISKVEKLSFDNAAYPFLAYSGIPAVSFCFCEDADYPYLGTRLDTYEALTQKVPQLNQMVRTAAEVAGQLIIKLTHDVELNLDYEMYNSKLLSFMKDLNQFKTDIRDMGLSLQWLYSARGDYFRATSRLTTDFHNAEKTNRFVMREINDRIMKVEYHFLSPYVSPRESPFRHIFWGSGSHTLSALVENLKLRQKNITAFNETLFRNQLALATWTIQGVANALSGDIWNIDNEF

Row | Kd [1] [nM] | Kd [2] [nM] | Kd [3] [nM] | Binder
1 | 125 | 2.5 | 6.1 | C5^V20 (VHH) VHH: EVQLVESGGGVVQPGGSLKLSCVASGHDFSINFIRWYRQAPGKQREFVAGFTATGNTNYADSMKGRFTISRDNTKNAVYLQIDSLKPEDTAVYYCYMLDKWGQGTQVTVSS
2 | 218 | 4.3 | 564 | C5^V24 (VHH) VHH: EVQLVESGGGVVQPGGSLKLSCVASGTDFSINFIRWYRQAPGKQREFVAGFTATGNTNYADSMKGRFTISRDNTKNAVYLQIDSLKPEDTAVYYCWMLDKWGQGTQVTVSS
3 | 656 | 987 | – | C5^h8 (VHH) VHH: EVQLVESGGGVVQPGGSLRLSCAASGTDFSINFIRWVRQAPGKGLEWVAGFTATGNTNYADSVKGRFTISRDNTKNTLYLQIDSLRPEDTAVYYCYMLDKWGQGTQVTVSS
4 | 898 | 630 | – | C5^h17 (VHH) VHH: EVQLVESGGGVVQPGGSLKLSCVASGTDFSINFIRWVRQAPGKGLEFVAGFTATGNTNYADSMKGRFTISRDNTKNALYLQIDSLRPEDTAVYYCYMLDKWGQGTQVTVSS
5 | 131 | 2.7 | 11 | C5^V22 (VHH) VHH: EVQLVESGGGVVQPGGSLKLSCVASGTDFSINFIRWYRQAPGKQREFVAGYTATGNTNYADSMKGRFTISRDNTKNAVYLQIDSLKPEDTAVYYCYMLDKWGQGTQVTVSS
6 | 254 | 4.5 | 353 | C5^V23 (VHH) VHH: EVQLVESGGGVVQPGGSLKLSCVASGTDFSINFIRWYRQAPGKQREFVAGFTATGNTNYADSMKGRFTISRDNTKNAVYLQIDSLKPEDTAVYYCHMLDKWGQGTQVTVSS
7 | 225 | 267 | – | VHH A21 (C5^h2) (VHH) VHH: EVQLVESGGGVVQPGGSLRLSCAASGTDFSINFIRWVRQAPGKQREFVAGFTATGNTNYADSVKGRFTISRDNAKNTLYLQMNSLRPEDTAVYYCYMLDKWGQGTQVTVSS
8 | 452 | 1090 | – | C5^h15 (VHH) VHH: EVQLVESGGGVVQPGGSLRLSCVASGTDFSINFIRWVRQAPGKGLEWVAGFTATGNTNYADSVKGRFTISRDNTKNTLYLQMDSLRPEDTAVYYCYMLDKWGQGTQVTVSS
9 | 120 | 2.4 | 8.2 | C5^V21 (VHH) VHH: EVQLVESGGGVVQPGGSLKLSCVASGTDFSINFIRWYRQAPGKQREFVAGWTATGNTNYADSMKGRFTISRDNTKNAVYLQIDSLKPEDTAVYYCYMLDKWGQGTQVTVSS
10 | 136 | 4.5 | 429 | C5^V25 (VHH) VHH: EVQLVESGGGVVQPGGSLKLSCVASGTDFSINFIRWYRQAPGKQREFVAGFTATGNTNYADSMKGRFTISRDNTKNAVYLQIDSLKPEDTAVYYCYLLDKWGQGTQVTVSS
11 | 164 | 1100 | – | C5^h14 (VHH) VHH: EVQLVESGGGVVQPGGSLRLSCAASGTDFSINFIRWVRQAPGKGLEWVAGFTATGNTNYADSVKGRFTISRDNTKNALYLQMNSLRPEDTAVYYCYMLDKWGQGTQVTVSS
12 | 845 | 1070 | – | C5^h10 (VHH) VHH: EVQLVESGGGVVQPGGSLKLSCAASGTDFSINFIRWVRQAPGKGLEWVAGFTATGNTNYADSVKGRFTISRDNTKNTLYLQINSLRPEDTAVYYCYMLDKWGQGTQVTVSS
13 | – | 193 | – | VHH A24 (C5^h5) (VHH) VHH: EVQLVESGGGVVQPGGSLRLSCAASGTDFSINFIRWVRQAPGKGLEWVAGFTATGNTNYADSVKGRFTISRDNAKNTLYLQMNSLRPEDTAVYYCYMLDKWGQGTQVTVSS
